From publication PMC5686073, “Suppression of SRCAP chromatin remodelling complex and restriction of lymphoid lineage commitment by Pcid2” (Nature Communications, 2017) come the findings set out here.

For the test, the target named is T1, His-PCID2 (PCI domain-containing protein 2) (mouse, UniProt Q8BFV2 1-399).
T1 construct: PCID2 (PCI domain-containing protein 2), mouse full-length Pcid2 subcloned into pETDuet; the plasmid section names only the mouse construct; also called His-tagged PCID2; recombinant PCID2 protein; source: E. coli, purified (Ni-NTA His-resins)
Description: pull-down; GST-ZNHIT1 incubated with His-PCID2 protein, GST pulldown. The note with it: both partners purified.

T1 sequence (Q8BFV2 whole entry, the tested form may be a part): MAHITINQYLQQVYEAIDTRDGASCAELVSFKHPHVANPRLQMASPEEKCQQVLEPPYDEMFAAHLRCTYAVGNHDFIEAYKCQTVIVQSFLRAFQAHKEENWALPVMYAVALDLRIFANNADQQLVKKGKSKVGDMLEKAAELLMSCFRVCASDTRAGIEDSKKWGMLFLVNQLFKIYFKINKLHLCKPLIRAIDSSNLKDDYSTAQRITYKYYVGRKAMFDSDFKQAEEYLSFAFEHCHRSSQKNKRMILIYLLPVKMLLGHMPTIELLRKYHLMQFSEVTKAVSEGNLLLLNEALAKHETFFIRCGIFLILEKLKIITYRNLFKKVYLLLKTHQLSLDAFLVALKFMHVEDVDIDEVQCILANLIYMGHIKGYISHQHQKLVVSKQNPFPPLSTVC

B1: GST-ZNHIT1 (Zinc finger HIT-type containing 1) (natural protein, mouse, UniProt Q8R331 1-154, looked up)
chain: MVEKKPAVRSQDPGQRRVLDRAARQRRINRQLEALENDNFQDDPHAGLPQLGKRLPQFDDDADTGKKKKKTRGDHFKLRFRKNFQALLEEQNLSASEGPNYLTACAGPPSRPQRPFCAVCGFPSPYTCVSCGARYCTVRCLGTHQETRCLKWTV
notes: ZNHIT1 (Zinc finger HIT-type containing 1, p18^hamlet), mouse Znhit1 cloned into pGEX-6P-1; Vector pGEX-6P-1; also called GST-tagged ZNHIT1; p18^hamlet; source: E. coli, purified (Glutathione Sepharose 4B)
Turning to B1, the binding result is given as “binds”.
